Test results published in publication PMC8909127 (Frontiers in Microbiology, 2022).
Several values for one entry are separate records, joined by “and”; a condition that tells them apart may be missing. Equal values may be shown once. No end group written: not given here.

T1: MPP5 PDZ (human, UniProt Q8N3R9 238-336)
T1 construct: PDZ domain of human MPP5 (PALS1), residues 238-336, numbering of the full-length human protein; […]; Labelled on amines with RED-NHS dye for MST; also called PALS1 PDZ; not shown: GST, N-terminal, cleaved
T1 sequence (looked up): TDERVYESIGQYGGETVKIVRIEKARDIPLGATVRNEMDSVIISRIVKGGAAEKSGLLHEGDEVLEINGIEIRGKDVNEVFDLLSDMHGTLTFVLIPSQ

T2: LNX2 PDZ2 (human, UniProt Q8N448 334-426)
T2 construct: second PDZ domain of human LNX2, residues 334-426, numbering of the full-length human protein; […]; Labelled on amines with RED-NHS dye for MST; also called LNX2-2; not shown: His tag, N-terminal, cleaved
T2 sequence (looked up): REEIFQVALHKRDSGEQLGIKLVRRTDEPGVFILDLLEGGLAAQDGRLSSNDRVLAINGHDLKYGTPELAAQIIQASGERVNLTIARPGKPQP

T3: MLLT4 PDZ (human, UniProt P55196 1002-1095)
T3 construct: PDZ domain of human MLLT4 (Afadin); the residues named in the structure (1014-1022, 1071) fit 1002-1095; also called Afadin PDZ; not shown: His tag, N-terminal, cleaved; MBP, N-terminal, cleaved
T3 sequence (looked up): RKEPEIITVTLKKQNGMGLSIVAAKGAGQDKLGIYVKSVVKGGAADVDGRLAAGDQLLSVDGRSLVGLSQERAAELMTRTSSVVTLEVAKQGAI

B1: ZO-1 PDZ2 (domain or fragment, human, UniProt Q07157 184-264, looked up)
chain: PTKVTLVKSRKNEEYGLRLASHIFVKEISQDSLAARDGNIQEGDVVLKINGTVTENMSLTDAKTLIERSKGKLKMVVQRDE
notes: second PDZ domain of human ZO-1 (TJP1), residues 184-264, numbering of the full-length human protein; […]; Labelled on amines with RED-NHS dye for MST; also called TJP1 PDZ2; ZO-1-2

Key:
GST-PDZ ZO1 = assay: GST pull-down, GST-PDZ ZO1; assay type: binding, human; settings: HEK293 cell lysates; 2 h at 4°C with glutathione resins; anti-GFP Western blot
Procedure: (§1) To investigate whether the five PDZ domains can interact with the full-length E protein and in a PBM-dependent manner, glutathione S-transferase (GST) pull-down assays were performed with the purified GST-tagged PDZ domains of ZO-1, LNX2, PARD3, MLLT4, and MPP5 and the lysates of HEK293 cells overexpressing constructs of GFP alone, GFP-tagged wild-type full-length E protein (GFP-E-WT), GFP-tagged full-length E protein with the PBM mutated with glycines (GFP-E-GGGG), and GFP-tagged cytoplasmic tail of protein E (last 12 residues; GFP-E last 12 aa) designated 1, 2, 3, and 4 in Figure 2 (Figure 2A). The GFP-tagged construct expression was assessed by examining the fluorescence emitted by the GFP by microscopy and by Western blot on the cell lysates using anti-GFP antibody (Figure 2B). GST alone was used as a negative control. We confirmed by using Ponceau S staining that equal amounts of GST-tagged protein constructs were bound to the GST resin (Figure 2C).
(§2) Glutathione S-transferase alone and its fusion with PDZ ZO1, PDZ LNX2, PDZ MLLT4, PDZ MPP5, and PDZ PARD3 are used as baits and were immobilized on glutathione beads and tested for their ability to pull down GFP alone, GFP-E-WT, GFP-E-GGGG, and GFP-E last 12 aa by Western blot using the anti-GFP antibody. After washing, identical amounts of beads were analyzed for the presence of GFP-tagged proteins. […]

GST-PDZ LNX2 = assay: GST pull-down, GST-PDZ LNX2; assay type: binding, human; settings: HEK293 cell lysates; 2 h at 4°C with glutathione resins; anti-GFP Western blot
Procedure: as §1, §2

GST-PDZ MLLT4 = assay: GST pull-down, GST-PDZ MLLT4; assay type: binding, human; settings: HEK293 cell lysates; 2 h at 4°C with glutathione resins; anti-GFP Western blot
Procedure: as §1, §2

GST-PDZ MPP5 = assay: GST pull-down, GST-PDZ MPP5; assay type: binding, human; settings: HEK293 cell lysates; 2 h at 4°C with glutathione resins; anti-GFP Western blot
Procedure: as §1, §2

GST-PDZ PARD3 = assay: GST pull-down, GST-PDZ PARD3; assay type: binding, human; settings: HEK293 cell lysates; 2 h at 4°C with glutathione resins; anti-GFP Western blot
Procedure: as §1, §2

GST alone = assay: GST pull-down, GST alone (negative control); assay type: binding; settings: GST alone as bait; HEK293 cell lysates; anti-GFP Western blot
Procedure: as §1, §2

[1] = biological target: the molecule itself; assay: AUC; sedimentation velocity, ZO-1-PDZ2 at 1 mg/mL; Tris 50 mM pH 7.5, NaCl 150 mM, TCEP 0.5 mM; 20°C, 42,000 rpm
[2] = Analytical ultracentrifugation; assay type: physicochemical; settings: 1 mg/mL, 20°C; for Oligomeric state in solution: AUC; for Oligomeric state in solution / Frictional ratio f/f0 (average) / Molecular weight estimated by analytical ultracentrifugation (AUC) / Peak proportion: pH 7.5; for Frictional ratio f/f0 (average): average over peaks; for Sedimentation coefficient: Tris 50 mM pH 7.5, NaCl 150 mM, TCEP 0.5 mM, 42,000 rpm, MLLT4-PDZ with excess of E PBM peptide
Procedure: ZO-1-PDZ2 and MLLT4-PDZ were prepared at 1 mg/mL. MLLT4-PDZ was prepared with an excess of protein E PBM peptide. Samples were prepared in Tris 50 mM pH 7.5, NaCl 150 mM, and TCEP 0.5 mM. A sample of 400 μl was loaded into 1.2-cm double-sector cells between two sapphire windows. […] Sedimentation profiles were monitored over time by absorbance measurement at 280 nm and by interferometry. The data were analyzed using the continuous size distribution model c(s) of the Sedfit 16.36 software. All distributions were calculated with a floating frictional ratio f/f0 and a maximum entropy regularization procedure with a confidence level of 0.68. The buffer viscosity (η = 0.01031 Poise), the density (ρ = 1.0059), and the partial specific volume of 0.746 for MLLT4 and 0.736 for Z0-1 were estimated at 20°C from the amino acid sequences at 20°C using the software SEDTERP 3.0.3.^3

ZO-1 PDZ2 = biological target: B1; assay: MST; […]; PBS tween 20 0.05%; room temperature; […]; duplicate; settings: both partners purified
MPP5 PDZ = biological target: T1, MPP5 PDZ; assay: as above; settings: both partners purified
LNX2 PDZ2 = biological target: T2, LNX2 PDZ2; assay: as above; settings: both partners purified
PARD3 PDZ3 = biological target: T4, PARD3 PDZ3 (human, UniProt Q8TEW0 582-685); assay: as above; settings: both partners purified
T4 construct: third PDZ domain of human PARD3, residues 582-685, numbering of the full-length human protein; […]; Labelled on amines with RED-NHS dye for MST; also called PARDD3-3; not shown: His tag, N-terminal, cleaved

MLLT4 PDZ = biological target: T3, MLLT4 PDZ; assay: as above; settings: both partners purified

T4 sequence (Q8TEW0 582-685): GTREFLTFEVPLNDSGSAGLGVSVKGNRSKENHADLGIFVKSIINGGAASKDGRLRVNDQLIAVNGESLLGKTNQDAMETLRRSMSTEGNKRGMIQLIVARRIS

Molecule	Oligomeric state in solution [2]	Frictional ratio f/f0 (average) [2]	Sedimentation coefficient ([2]; peak 1)	Molecular weight estimated by analytical ultracentrifugation (AUC) ([2]; peak 1)	Peak proportion ([2]; peak 1)	Sedimentation coefficient ([2]; peak 2)	Molecular weight estimated by analytical ultracentrifugation (AUC) ([2]; peak 2)	Peak proportion ([2]; peak 2)	Sedimentation coefficient ([2]; peak 3)	Molecular weight estimated by analytical ultracentrifugation (AUC) ([2]; peak 3)	other results
GFP-E last 12 aa (NLNSSRVPDLLV; also: fused to GFP, attachment end not given here)											GFP-tagged protein in bound fraction (GST-PDZ ZO1): detected in all interactions with GST-PDZ domains; GFP-tagged protein in bound fraction (GST-PDZ LNX2): detected in all interactions with GST-PDZ domains; GFP-tagged protein in bound fraction (GST-PDZ MLLT4): detected in all interactions with GST-PDZ domains; GFP-tagged protein in bound fraction (GST-PDZ MPP5): detected in all interactions with GST-PDZ domains; GFP-tagged protein in bound fraction (GST-PDZ PARD3): detected in all interactions with GST-PDZ domains; GFP-tagged protein in bound fraction (GST alone): not detected
B1											stoichiometry N [1]: 2 and ~4
ZO-1: PDZ2 domain of ZO-1, residues 184-264, at 1 mg/mL (protein, left off: His tag, N-terminal, state not stated, PDZ2 domain of ZO-1, residues 184-264, at 1 mg/mL) PTKVTLVKSRKNEEYGLRLASHIFVKEISQDSLAARDGNIQEGDVVLKINGTVTENMSLTDAKTLIERSKGKLKMVVQRDE	one dimeric form and one higher oligomeric state possibly compatible with a tetramer in solution	1.4	2.1 S	26 kDa	49%	2.8 S	40 kDa	49%	3.7 S	60 kDa	
NLNSSRVPDLLV (also called SARS-CoV-2 WT; SARS-CoV-2 peptide E) [C-terminal SARS-CoV-2-E PBM peptide]											Kd (ZO-1 PDZ2): 15 µM; Kd (MPP5 PDZ): 30 µM; Kd (LNX2 PDZ2): 289 µM; Kd (PARD3 PDZ3): 341 µM; Kd (MLLT4 PDZ): 569 µM
MLLT4-PBM: MLLT4-PDZ prepared with an excess of protein E PBM peptide (protein, left off: His tag, N-terminal, cleaved | MBP, N-terminal, cleaved, MLLT4-PDZ prepared with an excess of protein E PBM peptide) RKEPEIITVTLKKQNGMGLSIVAAKGAGQDKLGIYVKSVVKGGAADVDGRLAAGDQLLSVDGRSLVGLSQERAAELMTRTSSVVTLEVAKQGAI	mainly monomeric in solution	1.2	0.5 S	2.8 kDa	25%	1.4 S	12 kDa	65%	2.3 S	26 kDa	Peak proportion ([2]; peak 3): 10%
